From the supplement of paper PMC10567573

B1: FAM164A (parent)
chain: YDPDYIQCPYCQRRFNENAADRHI

Variants of: B1
Assay: protein stability index of a GFP-peptide fusion (GPS, HEK-293T) (PSI 1-6); higher = more stable
Conditions: c terminus: a fixed tail appended
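Further: lentivirally expressed fusions sorted by FACS into six bins by GFP to DsRed ratio, PSI derived from sequencing read proportions per bin multiplied by bin number.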

Variant | protein stability index
YDPDYIQCPYCQRRFIENAADRHI | 4.75
YDPDYIQCPYCQRRFHENAADRHI | 3.8
YDPDYIQCPYCQRRFLENAADRHI | 4.45
YDPDYIQCPYCQRRFFENAADRHI | 4.49
YDPDYIQCPYCQRRFWENAADRHI | 4.61
YDPDYIQCPYCQRRFVENAADRHI | 4.39
YDPDYIQCPYCQRRFQENAADRHI | 4.56
YDPDYIQCPYCQRRFAENAADRHI | 4.63
YDPDYIQCPYCQRRFYENAADRHI | 4.94
YDPDYIQCPYCQRRFKENAADRHI | 4.8
YDPDYIQCPYCQRRFTENAADRHI | 4.48
YDPDYIQCPYCQRRFMENAADRHI | 4.54
YDPDYIQCPYCQRRFRENAADRHI | 5.19
YDPDYIQCPYCQRRFSENAADRHI | 4.56
YDPDYIQCPYCQRRFGENAADRHI | 3.71
YDPDYIQCPYCQRRFCENAADRHI | 4.37
YDPDYIQCPYCQRRFPENAADRHI | 5.53
YDPDYIQCPYCQRRFDENAADRHI | 3.79
YDPDYIQCPYCQRRFEENAADRHI | 3.97
YDPDYIQCPCCQRRFNENAADRHI | 3.23
YDPDYIQCPGCQRRFNENAADRHI | 3.32
YDPDYIQCPACQRRFNENAADRHI | 4.5
YDPDYIQCPWCQRRFNENAADRHI | 3.89
YDPDYIQCPDCQRRFNENAADRHI | 3.36

Variant | protein stability index
YDPDYIQCPQCQRRFNENAADRHI | 3.45
YDPDYIQCPTCQRRFNENAADRHI | 3.56
YDPDYIQCPHCQRRFNENAADRHI | 3.6
YDPDYIQCPECQRRFNENAADRHI | 3.26
YDPDYIQCPFCQRRFNENAADRHI | 4.28
YDPDYIQCPKCQRRFNENAADRHI | 3.66
YDPDYIQCPICQRRFNENAADRHI | 3.15
YDPDYIQCPSCQRRFNENAADRHI | 3.9
YDPDYIQCPVCQRRFNENAADRHI | 3.49
YDPDYIQCPMCQRRFNENAADRHI | 3.53
YDPDYIQCPLCQRRFNENAADRHI | 3.02
YDPDYIQCPRCQRRFNENAADRHI | 2.99
YDPDYIQCPNCQRRFNENAADRHI | 3.91
YDPDYIQCPPCQRRFNENAADRHI | 3.72
YDPDYIQCPYCQRRFNEAAADRHI | 4.22
YDPDYIQCPYCQRRFNEYAADRHI | 3.72
YDPDYIQCPYCQRRFNEFAADRHI | 3.22
YDPDYIQCPYCQRRFNECAADRHI | 4.15
YDPDYIQCPYCQRRFNETAADRHI | 4.11
YDPDYIQCPYCQRRFNEDAADRHI | 4.5
YDPDYIQCPYCQRRFNERAADRHI | 3.71
YDPDYIQCPYCQRRFNEVAADRHI | 3.86
YDPDYIQCPYCQRRFNESAADRHI | 4.28
YDPDYIQCPYCQRRFNEEAADRHI | 4.26

Variant | protein stability index
YDPDYIQCPYCQRRFNEPAADRHI | 3.91
YDPDYIQCPYCQRRFNEQAADRHI | 4.76
YDPDYIQCPYCQRRFNEKAADRHI | 4.11
YDPDYIQCPYCQRRFNEIAADRHI | 3.36
YDPDYIQCPYCQRRFNEGAADRHI | 3.92
YDPDYIQCPYCQRRFNEWAADRHI | 3.4
YDPDYIQCPYCQRRFNELAADRHI | 3.93
YDPDYIQCPYCQRRFNEHAADRHI | 4.37
YDPDYIQCPYCQRRFNEMAADRHI | 3.48
YDPDYIQCPYCQRRFNENFADRHI | 4.24
YDPDYIQCPYCQRRFNENHADRHI | 4.12
YDPDYIQCPYCQRRFNENGADRHI | 4.41
YDPDYIQCPYCQRRFNENEADRHI | 4.61
YDPDYIQCPYCQRRFNENDADRHI | 4.47
YDPDYIQCPYCQRRFNENIADRHI | 4.02
YDPDYIQCPYCQRRFNENMADRHI | 3.88
YDPDYIQCPYCQRRFNENCADRHI | 4.42
YDPDYIQCPYCQRRFNENNADRHI | 4.37
YDPDYIQCPYCQRRFNENKADRHI | 4
YDPDYIQCPYCQRRFNENLADRHI | 4.03
YDPDYIQCPYCQRRFNYNAADRHI | 4.68
YDPDYIQCPYCQRRFNWNAADRHI | 4.77
YDPDYIQCPYCQRRFNINAADRHI | 5.23
YDPDYIQCPYCQRRFNVNAADRHI | 5.04

Variant | protein stability index
YDPDYIQCPYCQRRFNNNAADRHI | 5.01
YDPDYIQCPYCQRRFNLNAADRHI | 5.16
YDPDYIQCPYCQRRFNQNAADRHI | 4.94
YDPDYIQCPYCQRRFNGNAADRHI | 4.5
YDPDYIQCPYCQRRFNFNAADRHI | 5.14
YDPDYIQCPYCQRRFNTNAADRHI | 4.91
YDPDYIQCPYCQRRFNDNAADRHI | 4.37
YDPDYIQCPYCQRRFNSNAADRHI | 4.69
YDPDYIQCPYCQRRFNKNAADRHI | 5.07
YDPDYIQCPYCQRRFNHNAADRHI | 4.97
YDPDYIQCPYCQRRFNMNAADRHI | 5.01
YDPDYIQCPYCQRRFNANAADRHI | 5.13
YDPDYIQCPYCQRRFNPNAADRHI | 5.37
YDPDYIQCPYCQRRFNRNAADRHI | 4.89
YDPDYIQCPYCQRRFNCNAADRHI | 5.13
YDPDYIQCPYCQRRNNENAADRHI | 3.18
YDPDYIQCPYCQRRRNENAADRHI | 3.59
YDPDYIQCPYCQRRGNENAADRHI | 2.83
YDPDYIQCPYCQRRYNENAADRHI | 3.47
YDPDYIQCPYCQRRVNENAADRHI | 3.06
YDPDYIQCPYCQRRCNENAADRHI | 3.34
YDPDYIQCPYCQRRDNENAADRHI | 3.17
YDPDYIQCPYCQRRHNENAADRHI | 3.14
YDPDYIQCPYCQRRTNENAADRHI | 2.48

Variant | protein stability index
YDPDYIQCPYCQRRPNENAADRHI | 2.8
YDPDYIQCPYCQRRSNENAADRHI | 2.93
YDPDYIQCPYCQRRQNENAADRHI | 3.4
YDPDYIQCPYCQRRLNENAADRHI | 3.77
YDPDYIQCPYCQRRINENAADRHI | 4.21
YDPDYIQCPYCQRRKNENAADRHI | 3.54
YDPDYIQCPYCQRRANENAADRHI | 3.08
YDPDYIQCPYCQRRMNENAADRHI | 3.66
YDPDYIQCPYCQRRENENAADRHI | 3.59
YDPDYIQCPYCQRRWNENAADRHI | 4
YDPDYIQCPYCQRQFNENAADRHI | 4.24
YDPDYIQCPYCQRGFNENAADRHI | 2.81
YDPDYIQCPYCQRLFNENAADRHI | 4.28
YDPDYIQCPYCQRHFNENAADRHI | 4
YDPDYIQCPYCQRYFNENAADRHI | 4.52
YDPDYIQCPYCQRFFNENAADRHI | 5.24
YDPDYIQCPYCQRPFNENAADRHI | 3.9
YDPDYIQCPYCQRWFNENAADRHI | 5.12
YDPDYIQCPYCQRKFNENAADRHI | 4.01
YDPDYIQCPYCQRAFNENAADRHI | 4.16
YDPDYIQCPYCQRTFNENAADRHI | 4.45
YDPDYIQCPYCQRIFNENAADRHI | 4.64
YDPDYIQCPYCQRVFNENAADRHI | 4.67
YDPDYIQCPYCQRMFNENAADRHI | 3.77

Variant | protein stability index
YDPDYIQCPYCQREFNENAADRHI | 3.88
YDPDYIQCPYCQRCFNENAADRHI | 4.41
YDPDYIQCPYCQRSFNENAADRHI | 4.11
YDPDYIQCPYCQRDFNENAADRHI | 3.08
YDPDYIQCPYCQRNFNENAADRHI | 2.68
YDPDYIQCPYCKRRFNENAADRHI | 5.16
YDPDYIQCPYCVRRFNENAADRHI | 2.48
YDPDYIQCPYCFRRFNENAADRHI | 4.24
YDPDYIQCPYCERRFNENAADRHI | 4.04
YDPDYIQCPYCDRRFNENAADRHI | 3.26
YDPDYIQCPYCWRRFNENAADRHI | 3.61
YDPDYIQCPYCNRRFNENAADRHI | 4.05
YDPDYIQCPYCYRRFNENAADRHI | 4.3
YDPDYIQCPYCARRFNENAADRHI | 4.08
YDPDYIQCPYCTRRFNENAADRHI | 2.4
YDPDYIQCPYCGRRFNENAADRHI | 4.74
YDPDYIQCPYCPRRFNENAADRHI | 2.64
YDPDYIQCPYCMRRFNENAADRHI | 3.85
YDPDYIQCPYCIRRFNENAADRHI | 2.52
YDPDYIQCPYCSRRFNENAADRHI | 3.52
YDPDYIQCPYCHRRFNENAADRHI | 4.93
YDPDYIQCPYCCRRFNENAADRHI | 3.84
YDPDYIQCPYCRRRFNENAADRHI | 4.27
YDPDYIQCPYCLRRFNENAADRHI | 4.9

Variant | protein stability index
YDPDYIQCWYCQRRFNENAADRHI | 2.52
YDPDYIQCRYCQRRFNENAADRHI | 2.58
YDPDYIQCVYCQRRFNENAADRHI | 2.44
YDPDYIQCTYCQRRFNENAADRHI | 2.55
YDPDYIQCSYCQRRFNENAADRHI | 2.95
YDPDYIQCYYCQRRFNENAADRHI | 2.07
YDPDYIQCPYSQRRFNENAADRHI | 4.03
YDPDYIQCPYYQRRFNENAADRHI | 3.45
YDPDYIQCPYRQRRFNENAADRHI | 3.06
YDPDYIQCPYNQRRFNENAADRHI | 4.36
YDPDYIQCPYMQRRFNENAADRHI | 3.65
YDPDYIQCPYGQRRFNENAADRHI | 3.75
YDPDYIQCPYLQRRFNENAADRHI | 3.13
YDPDYIQCPYPQRRFNENAADRHI | 3.65
YDPDYIQCPYFQRRFNENAADRHI | 3.45
YDPDYIQCPYKQRRFNENAADRHI | 3.57
YDPDYIQCPYIQRRFNENAADRHI | 3.22
YDPDYIQCPYAQRRFNENAADRHI | 3.48
YDPDYIQCPYDQRRFNENAADRHI | 3.81
YDPDYIQCPYQQRRFNENAADRHI | 3.47
YDPDYIQCPYTQRRFNENAADRHI | 3.72
YDPDYIQCPYHQRRFNENAADRHI | 3.69
YDPDYIQCPYWQRRFNENAADRHI | 3.42
YDPDYIQCPYVQRRFNENAADRHI | 3.57

Variant | protein stability index
YDPDYIQCPYEQRRFNENAADRHI | 4.23
YDPDYIQCPYCQNRFNENAADRHI | 3.68
YDPDYIQCPYCQGRFNENAADRHI | 4.23
YDPDYIQCPYCQFRFNENAADRHI | 3.18
YDPDYIQCPYCQQRFNENAADRHI | 3.75
YDPDYIQCPYCQARFNENAADRHI | 3.76
YDPDYIQCPYCQDRFNENAADRHI | 3.16
YDPDYIQCPYCQVRFNENAADRHI | 2.23
YDPDYIQCPYCQPRFNENAADRHI | 2.24
YDPDYIQCPYCQTRFNENAADRHI | 2.41
YDPDYIQCPYCQSRFNENAADRHI | 3.62
YDPDYIQCPYCQKRFNENAADRHI | 4.32
YDPDYIQCPYCQERFNENAADRHI | 3.07
YDPDYIQCPYCQCRFNENAADRHI | 3.17
YDPDYIQCPYCQMRFNENAADRHI | 4.03
YDPDYIQCPYCQIRFNENAADRHI | 2.92
YDPDYIQCPYCQYRFNENAADRHI | 2.7
YDPDYIQCPYCQWRFNENAADRHI | 2.13
YDPDYIQCPYCQLRFNENAADRHI | 2.64
YDPDYIQCPYCQHRFNENAADRHI | 3.51
